In article PMC7191749, “Low phosphatase activity of LiaS and strong LiaR-DNA affinity explain the unusual LiaS to LiaR in vivo stoichiometry” (BMC Microbiology, 2020):

Tests used:
[1] = biological target: T1, LiaS (GST-LiaS, liaS^126) (Bacillus subtilis, UniProt O32198); experiment: autophosphorylation, […] incorporation by SDS-PAGE phosphorimaging, kobs against ATP; assay type: biochemical; conditions: labelled compound; pH 7.4, 50 mM KCl, 5 mM MgCl2, 10 mM CaCl2, 25 °C; 5 μM LiaS; 10-250 μM ATP; apparent dissociation constant from kinetics; read-out: KS
T1 construct: cytoplasmic domain, residues 126-360 (TM and HAMP removed), fused to C-terminus of GST; pGEX-4T-1, E. coli BL21(DE3); calculated mass 52,431 (printed as kD)

[2] = biological target: T2, LiaR^N (RD of LiaR) (Bacillus subtilis, UniProt O32197); experiment: phosphorylation by acetyl phosphate; assay type: biochemical; conditions: covalent phosphorylation of the stand-alone receiver domain
T2 construct: receiver domain, tagless, Gly-131 codon changed to stop (residues 1-130); pET26b, E. coli BL21(DE3); calculated mass 14,029 (printed as kD)

[3] = tested on: LiaR (Bacillus subtilis 168); experiment: EMSA; conditions: 5 mM Mg2+; unphosphorylated; EMSA: 10 mM Tris pH 7.5, 50 mM KCl, 1 mM DTT, 5 mM MgCl2, 10 ng herring sperm DNA, 2.5% glycerol, 25 C, 30 min, 9% native PAGE; footprinting as in ref 35
[4] = tested on: LiaRC (effector domain) (Bacillus subtilis 168); experiment: EMSA; conditions: 5 mM Mg2+; EMSA: 10 mM Tris pH 7.5, 50 mM KCl, 1 mM DTT, 5 mM MgCl2, 10 ng herring sperm DNA, 2.5% glycerol, 25 C, 30 min, 9% native PAGE; footprinting as in ref 35
[5] = biological target: T3, LiaR (Bacillus subtilis 168) (UniProt O32197); experiment: EMSA; conditions: EMSA: 10 mM Tris pH 7.5, 50 mM KCl, 1 mM DTT, 5 mM MgCl2, 10 ng herring sperm DNA, 2.5% glycerol, 25 C, 30 min, 9% native PAGE; footprinting as in ref 35
T3 sequence: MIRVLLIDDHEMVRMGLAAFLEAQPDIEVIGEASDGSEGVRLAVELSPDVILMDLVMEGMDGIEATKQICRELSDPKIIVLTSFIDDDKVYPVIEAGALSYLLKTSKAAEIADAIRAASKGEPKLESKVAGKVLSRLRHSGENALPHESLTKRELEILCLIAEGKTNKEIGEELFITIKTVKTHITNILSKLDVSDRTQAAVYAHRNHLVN

[6] = biological target: T4, LiaRC (effector domain) (Bacillus subtilis 168) (UniProt O32197); experiment: EMSA; conditions: EMSA: 10 mM Tris pH 7.5, 50 mM KCl, 1 mM DTT, 5 mM MgCl2, 10 ng herring sperm DNA, 2.5% glycerol, 25 C, 30 min, 9% native PAGE; footprinting as in ref 35
T4 sequence: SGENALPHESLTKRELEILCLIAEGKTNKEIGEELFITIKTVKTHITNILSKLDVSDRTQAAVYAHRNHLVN

[7] = biological target: T3, LiaR (Bacillus subtilis 168); experiment: DNase I footprinting; conditions: EMSA: 10 mM Tris pH 7.5, 50 mM KCl, 1 mM DTT, 5 mM MgCl2, 10 ng herring sperm DNA, 2.5% glycerol, 25 C, 30 min, 9% native PAGE; footprinting as in ref 35
[8] = biological target: T5, VraR (Staphylococcus aureus) (UniProt Q7A2Q1); experiment: DNase I footprinting; conditions: EMSA: 10 mM Tris pH 7.5, 50 mM KCl, 1 mM DTT, 5 mM MgCl2, 10 ng herring sperm DNA, 2.5% glycerol, 25 C, 30 min, 9% native PAGE; footprinting as in ref 35
T5 sequence: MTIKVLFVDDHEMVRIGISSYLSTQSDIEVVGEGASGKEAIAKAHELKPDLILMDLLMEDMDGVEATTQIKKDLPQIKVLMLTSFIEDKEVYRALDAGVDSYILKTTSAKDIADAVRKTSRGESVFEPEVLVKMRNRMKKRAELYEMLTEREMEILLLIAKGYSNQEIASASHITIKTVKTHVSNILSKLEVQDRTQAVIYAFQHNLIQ

[9] = biological target: the molecule itself; experiment: native-PAGE

T1 sequence (O32198 126-360): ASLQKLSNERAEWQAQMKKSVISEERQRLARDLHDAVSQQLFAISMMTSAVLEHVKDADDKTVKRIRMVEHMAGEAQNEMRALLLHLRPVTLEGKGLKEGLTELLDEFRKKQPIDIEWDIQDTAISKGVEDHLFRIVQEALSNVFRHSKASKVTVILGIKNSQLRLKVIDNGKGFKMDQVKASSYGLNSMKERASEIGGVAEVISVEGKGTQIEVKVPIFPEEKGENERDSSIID

Nc1ncnc2c1ncn2[C@@H]1O[C@H](COP(=O)(O)OP(=O)(O)OP(=O)(O)O)[C@@H](O)[C@H]1O [ATP]
Kd [1]: 7 ± 1 µM

CC(=O)OP(=O)(O)O [acetyl phosphate]
phosphorylation by acetyl phosphate [2]: RD of LiaR also underwent phosphorylation by acetyl phosphate

PliaI (-162 to +31)
Kd [3]: 0.2 µM
Kd [4]: 20 µM

TTCATGCAGATCCTCCTTTCGTTTTCCTTGTCTTCATCTTATACAAGTTGGAAGATATGCAAAACGAATCAGAGATTGATTTTTATATAAGACCGGAGTCGTATCTCGCACCGGACCCATTGGCACAAAAAAACGCCATGCACGAGGCATGGCGTTTTAAAACCCTTTACAGATGAACACTTGCTTCCCTTTC (double strand) [PliaI (-162 to +31)]
Kd [5]: 0.2 µM
Kd [6]: 20 µM
binding [7]: binds
binding [8]: binds

B1: LiaR 1-211 (protein)
chain: MIRVLLIDDHEMVRMGLAAFLEAQPDIEVIGEASDGSEGVRLAVELSPDVILMDLVMEGMDGIEATKQICRELSDPKIIVLTSFIDDDKVYPVIEAGALSYLLKTSKAAEIADAIRAASKGEPKLESKVAGKVLSRLRHSGENALPHESLTKRELEILCLIAEGKTNKEIGEELFITIKTVKTHITNILSKLDVSDRTQAAVYAHRNHLVN
Kd [9]: > 20 µM
